Data published in US7354588B1, “Functional derivatives of ICAM-1 with altered ability to bind LFA-1 or HRV” (Dana Farber Cancer Institute, priority 1987, dated 2008).
Positions count from the first letter of the chain named. Names and notes keep the numbering of the source.

B1: N175/A: ICAM-1 mutant, glycosylation site N175 replaced with A (protein, UniProt P05362 28-532, looked up, variant N175A)
Intercellular adhesion …: QTSVSPSKVILPRGGSVLVTCSTSCDQPKLLGIETPLPKKELLLPGNNRKVYELSNVQEDSQPMCYSNCPDGQSTAKTFLTVYWTPERVELAPLPSWQPVGKNLTLRCQVEGGAPRANLTVVLLRGEKELKREPAVGEPAEVTTTVLVRRDHHGANFSCRTELDLRPQGLELFEATSAPYQLQTFVLPATPPQLVSPRVLEVDTQGTVVCSLDGLFPVSEAQVHLALGDQRLNPTVTYGNDSFSAKASVSVTAEDEGTQRLTCAVILGNQSQETLQTVTIYSFPAPNVILTKPEVSEGTEVTVKCEAHPRAKVTLNGVPAQPLGPRAQLLLKATPEDNGRSFSCSATLEVAGQLIHKNQTRELRVLYGPRLDERDCPGNWTWPENSQQTPMCQAWGNPLPELKCLKDGTFPLPIGESVTVTRDLEGTYLCRARSTQGEVTRKVTVNVLSPRYEIVIITVVAAAVIMGTAGLSTYLYNRQRKIKKYRLQQAQKGTPMKPNTQATPP
B2: N156/E: ICAM-1 domain 2 substitution mutant affecting an N-linked glycosylation site (protein, UniProt P05362 28-532, looked up, variant N156E)
Intercellular adhesion …: B1 Intercellular adhesion … with N156E, A175N
B3: N118/Q: ICAM-1 domain 2 substitution mutant affecting an N-linked glycosylation site (protein, UniProt P05362 28-532, looked up, variant N118Q)
Intercellular adhesion …: B1 Intercellular adhesion … with N118Q, A175N
B4: Q27/L: ICAM-1 substitution mutant, Q27 to L (protein, UniProt P05362 28-532, looked up, variant Q27L)
Intercellular adhesion …: B1 Intercellular adhesion … with Q27L, A175N
B5: K39KE/ERQ: ICAM-1 substitution mutant, K39KE to ERQ (protein, UniProt P05362 28-532, looked up, variant K39E K40R E41Q)
Intercellular adhesion …: B1 Intercellular adhesion … with K39E, K40R, E41Q, A175N
B6: E90/K: ICAM-1 substitution mutant, E90 to K (protein, UniProt P05362 28-532, looked up, variant E90K)
Intercellular adhesion …: B1 Intercellular adhesion … with E90K, A175N
B7: Q73/H: ICAM-1 substitution mutant, Q73 to H (protein, UniProt P05362 28-532, looked up, variant Q73H)
Intercellular adhesion …: B1 Intercellular adhesion … with Q73H, A175N
B8: D71/N: ICAM-1 substitution mutant, D71 to N (protein, UniProt P05362 28-532, looked up, variant D71N)
Intercellular adhesion …: B1 Intercellular adhesion … with D71N, A175N
B9: S177/G: ICAM-1 domain 2 substitution mutant affecting an N-linked glycosylation site (protein, UniProt P05362 28-532, looked up, variant S177G)
Intercellular adhesion …: B1 Intercellular adhesion … with A175N, S177G
B10: Q1T/KA: ICAM-1 substitution mutant, Q1T to KA (protein, UniProt P05362 28-532, looked up, variant Q1K T2A)
Intercellular adhesion …: B1 Intercellular adhesion … with Q1K, T2A, A175N
B11: R49KV/EKL: ICAM-1 substitution mutant, R49KV to EKL (protein, UniProt P05362 28-532, looked up, variant R49E V51L)
Intercellular adhesion …: B1 Intercellular adhesion … with R49E, V51L, A175N
B12: Q73/T: ICAM-1 substitution mutant, Q73 to T (protein, UniProt P05362 28-532, looked up, variant Q73T)
Intercellular adhesion …: B1 Intercellular adhesion … with Q73T, A175N

target: T1, LFA-1 (Homo sapiens, UniProt P05107+P20701); assay: Adherence of COS cells expressing ICAM-1 or ICAM-1 mutants to plastic-bound purified LFA-1; format: cell-based; details: COS cells expressing ICAM-1 mutant adhering to LFA-1 coated plastic; normalized for percent of cells expressing mutant and for wild type binding; mean
T1 construct: endogenous in cells
T1 sequence (P20701 26-1170): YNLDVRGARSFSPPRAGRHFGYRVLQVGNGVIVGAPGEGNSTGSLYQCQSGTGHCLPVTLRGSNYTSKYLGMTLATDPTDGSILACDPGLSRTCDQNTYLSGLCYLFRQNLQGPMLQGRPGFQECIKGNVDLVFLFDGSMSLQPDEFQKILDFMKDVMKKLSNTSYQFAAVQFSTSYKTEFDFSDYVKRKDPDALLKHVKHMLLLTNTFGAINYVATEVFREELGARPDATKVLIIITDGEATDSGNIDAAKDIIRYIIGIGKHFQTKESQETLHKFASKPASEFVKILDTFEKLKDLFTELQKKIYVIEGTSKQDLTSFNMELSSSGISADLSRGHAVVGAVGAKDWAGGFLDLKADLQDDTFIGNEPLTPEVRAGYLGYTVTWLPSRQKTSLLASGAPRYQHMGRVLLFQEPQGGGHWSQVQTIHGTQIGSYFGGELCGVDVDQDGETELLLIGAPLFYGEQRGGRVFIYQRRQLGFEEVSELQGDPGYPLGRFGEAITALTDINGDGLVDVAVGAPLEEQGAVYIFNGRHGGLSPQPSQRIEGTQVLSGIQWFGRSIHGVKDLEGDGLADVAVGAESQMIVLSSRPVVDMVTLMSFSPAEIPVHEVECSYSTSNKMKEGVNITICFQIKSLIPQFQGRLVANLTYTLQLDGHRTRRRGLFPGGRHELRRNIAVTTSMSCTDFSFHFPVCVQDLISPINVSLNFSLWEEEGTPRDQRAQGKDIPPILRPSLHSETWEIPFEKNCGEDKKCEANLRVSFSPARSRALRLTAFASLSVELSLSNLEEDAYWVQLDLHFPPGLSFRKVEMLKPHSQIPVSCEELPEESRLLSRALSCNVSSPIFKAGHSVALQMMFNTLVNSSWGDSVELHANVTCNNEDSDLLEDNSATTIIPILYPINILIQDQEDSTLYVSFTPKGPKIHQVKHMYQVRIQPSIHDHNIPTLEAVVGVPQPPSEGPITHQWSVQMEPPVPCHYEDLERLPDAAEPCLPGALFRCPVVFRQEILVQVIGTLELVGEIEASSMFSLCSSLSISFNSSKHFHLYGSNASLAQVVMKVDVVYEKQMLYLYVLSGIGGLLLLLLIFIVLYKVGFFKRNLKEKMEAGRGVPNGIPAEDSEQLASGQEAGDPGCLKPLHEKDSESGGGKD
T1 sequence (P05107 23-769): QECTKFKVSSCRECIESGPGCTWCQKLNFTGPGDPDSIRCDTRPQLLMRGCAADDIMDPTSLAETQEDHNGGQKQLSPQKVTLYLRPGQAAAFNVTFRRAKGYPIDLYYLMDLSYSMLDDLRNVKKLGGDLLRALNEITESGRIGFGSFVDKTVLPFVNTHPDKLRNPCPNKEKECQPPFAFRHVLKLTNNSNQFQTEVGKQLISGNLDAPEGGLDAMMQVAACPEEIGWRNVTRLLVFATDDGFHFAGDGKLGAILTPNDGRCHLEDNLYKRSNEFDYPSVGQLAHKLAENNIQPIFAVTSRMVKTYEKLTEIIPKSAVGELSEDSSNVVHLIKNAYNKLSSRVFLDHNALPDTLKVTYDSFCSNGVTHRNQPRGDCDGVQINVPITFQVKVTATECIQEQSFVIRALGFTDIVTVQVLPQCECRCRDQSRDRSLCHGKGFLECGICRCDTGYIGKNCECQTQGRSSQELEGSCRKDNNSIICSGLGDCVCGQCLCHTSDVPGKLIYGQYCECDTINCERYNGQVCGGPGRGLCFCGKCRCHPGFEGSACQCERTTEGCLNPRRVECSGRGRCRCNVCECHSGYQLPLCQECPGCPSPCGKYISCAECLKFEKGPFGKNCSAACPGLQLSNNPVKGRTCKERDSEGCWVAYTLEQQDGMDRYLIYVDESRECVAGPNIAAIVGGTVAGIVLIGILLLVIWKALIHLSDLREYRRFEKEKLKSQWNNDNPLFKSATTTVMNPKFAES

Point of comparison: B12, “LFA-1 Binding %” value 40%. Against it:
- B1 — higher, 67%
- B2 — higher, 60%
- B3 — higher, 54%
- B4 — lower, 37%
- B5 — higher, 99%
- B6 — lower, 34%
- B7 — lower, 12%
- B8 — higher, 79%
- B9 — higher, 59%
- B10 — higher, 119%
- B11 — higher, 123%

same assay, conditions: COS cells expressing the mutant, relative to wild type

In the case of B1, the “LFA-1 binding of ICAM-1 mutant (in words)” value is reported as “did not appear to substantially effect”.

With B1 the “decrease in LFA-1 binding” value was “approximately two-fold”.
In the case of B2, the “decrease in LFA-1 binding” value is reported as “approximately two-fold”.
With B3 the “decrease in LFA-1 binding” value was “approximately two-fold”.
With B9 the “decrease in LFA-1 binding” value was “approximately two-fold”.
For B12, the “decrease in LFA-1 binding” value was “two-fold”.

B7 was tested, and the “decrease in LFA-1 binding” value was 10 fold.

tested on: CL203 mAb; assay: Indirect immunofluorescence flow cytofluorometry: mAb CL203 binding to COS cells expressing ICAM-1 mutants (SLFI, % WT); format: cell-based; details: COS cells expressing the mutant, relative to wild type
Description: (§1) For HRV binding studies, COS cells were reseeded in a 24 well plate. One day later, the confluent monolayer was washed twice with 1 ml of RPMI 1640/10 mM MgCl2/25 mM Hepes pH 7.3 (rhinovirus-14 buffer). Transfected COS cells were labeled with 51Cr for binding to LFA-1 coated plastic as previously described (Staunton, D. E., et al., Nature 339:61-64 (1989). Immunoprecipitation and indirect immunofluorescence was performed using ICAM-1 MAb RR1/1 (Rothlein, R., et al., J. Immunol. 137:1270-1274 (1986)), R6.5 (Rothlein, R., et al., J. Immunol. 141:1665-1669 (1988)), LB-1 (Clark, E. A., et al., Hum. Immunol. 16:100-113 (1986)) and CL203 (Maio, M., J. Immunol. 143:181-188 (1989), all of which references are incorporated herein by reference).
(§2) Binding of RR1, R6.5, and LB-2 mAb was normalized to binding of CL203 mAb using Specific Linear Fluorescence Intensity (SLFI): % CL203=(mAbSLFI)×100)/CL203mABSLFI
(§3) In Table 25, the notation for the mutations uses the one-letter code for the wild-type sequence followed by a slash and the one-letter code for the corresponding mutant sequence. The position of the first amino acid within the sequence is indicated. Wild type residues precede the slash followed by the residues they were substituted for in the mutant. COS cells expressing ICAM-1 mutants were tested for adherence to LFA-1 coated plastic and for binding 35S met-labeled HRV14. LFA-1 and HRV14 binding is normalized for percent of cells expressing mutant ICAM-1 and for binding of wild type expressing cells. Binding is presented as mean and standard error (SE) for multiple experiments (n). Effects of two-fold or greater were reproducible in LFA-1, HRV and mAb binding assays and thus considered significant (bold and underlined). The specific linear fluorescence intensity (SLFI) of CL203 for each mutant is normalized to that of wild type CL203 SLFI (% WT) as discussed above. The SLFI of RR1/1, R6.5 and LB-2 SLFI is normalized to the CL203 SLFI of the mutant (% CL203) as described above.

B4 was tested, and the “binding of MAb CL203 (in words)” value was “specifically reduced level of expression”.
With B6 the “binding of MAb CL203 (in words)” value was “specifically reduced level of expression”.

same assay, conditions: SLFI of CL203 for mutant normalized to wild type CL203 SLFI; level of expression

Point of comparison: B12, “Cl203 % WT (SLFI)” value 218 % WT. Against it:
- B1 — lower, 80 % WT
- B2 — lower, 182 % WT
- B3 — lower, 139 % WT
- B4 — lower, 33 % WT
- B5 — lower, 84 % WT
- B6 — lower, 29 % WT
- B7 — lower, 139 % WT
- B8 — lower, 109 % WT
- B9 — lower, 87 % WT
- B10 — higher, 230 % WT
- B11 — higher, 233 % WT

tested on: R6.5 mAb; assay: Indirect immunofluorescence flow cytofluorometry: mAb R6.5 binding to COS cells expressing ICAM-1 mutants (SLFI, % CL203); format: cell-based; details: SLFI normalized to CL203 SLFI of the mutant
Description: as §1, §2, §3

Point of comparison: B4, “SLFI (% CL203) R6.5” value 75 % CL203. Against it:
- B1 — higher, 175 % CL203
- B2 — higher, 95 % CL203
- B3 — higher, 85 % CL203
- B5 — higher, 93 % CL203
- B6 — higher, 123 % CL203
- B7 — higher, 80 % CL203
- B8 — higher, 94 % CL203
- B9 — higher, 118 % CL203
- B10 — higher, 115 % CL203
- B11 — higher, 97 % CL203
- B12 — higher, 86 % CL203

tested on: RR1/1 mAb; assay: Indirect immunofluorescence flow cytofluorometry: mAb RR1/1 binding to COS cells expressing ICAM-1 mutants (SLFI, % CL203); format: cell-based; details: SLFI normalized to CL203 SLFI of the mutant
Description: as §1, §2, §3

Point of comparison: B9, “SLFI (% CL203) RR/1” value 136 % CL203. Against it:
- B1 — higher, 162 % CL203
- B2 — lower, 84 % CL203
- B3 — lower, 93 % CL203
- B4 — lower, 75 % CL203
- B5 — lower, 47 % CL203
- B6 — lower, 100 % CL203
- B7 — lower, 21 % CL203
- B8 — lower, 44 % CL203
- B10 — lower, 94 % CL203
- B11 — lower, 103 % CL203
- B12 — lower, 71 % CL203

tested on: LB-2 mAb; assay: Indirect immunofluorescence flow cytofluorometry: mAb LB-2 binding to COS cells expressing ICAM-1 mutants (SLFI, % CL203); format: cell-based; details: SLFI normalized to CL203 SLFI of the mutant
Description: as §1, §2, §3

Point of comparison: B7, “SLFI (% CL203) LB-2” value 80 % CL203. Against it:
- B1 — higher, 150 % CL203
- B2 — higher, 95 % CL203
- B3 — higher, 93 % CL203
- B4 — higher, 125 % CL203
- B5 — higher, 87 % CL203
- B6 — higher, 108 % CL203
- B8 — higher, 83 % CL203
- B9 — higher, 90 % CL203
- B10 — higher, 113 % CL203
- B11 — lower, 52 % CL203
- B12 — higher, 114 % CL203

tested on: HRV14; assay: Binding of [^35S]-Met labeled HRV14 to COS cells expressing ICAM-1 mutants; format: cell-based, human rhinovirus 14; details: 35S met-labeled HRV14 binding to COS cells expressing ICAM-1 mutant; normalized for percent of cells expressing mutant and for wild type binding; mean

Point of comparison: B6, “HRV Binding %” value 50%. Against it:
- B1 — higher, 129%
- B2 — higher, 107%
- B3 — higher, 110%
- B4 — higher, 57%
- B5 — higher, 61%
- B7 — higher, 117%
- B8 — higher, 62%
- B9 — higher, 66%
- B10 — lower, 11%
- B11 — lower, 49%
- B12 — higher, 133%

same assay, conditions: COS cells expressing the mutant, relative to wild type

In the case of B5, the “decrease in HRV14 binding” value is reported as “two-fold”.
B8 was tested, and the “decrease in HRV14 binding” value was “two-fold”.
With B10 the “decrease in HRV14 binding” value was “ten-fold”.
With B11 the “decrease in HRV14 binding” value was “two-fold”.

B7 was tested, and the “HRV14 binding of ICAM-1 mutant (in words)” value was “weak or a non-detectable affect on HRV binding”.
